Results on 1 molecule are retold here after US12383572B2, “Administration of an anti-activin-a compound to a subject” (AMGEN INC., priority 2013, dated 2025).

Assay [1] in a line: TOV-21G xenograft, hu-sActRIIB-Fc alone or with 5-FU: body weight. The assay is classed as in vivo, mouse. To be noted: TOV-21G tumor-bearing athymic nude mice. Here is the method: In another experiment, athymic nude mice received TOV-21G xenografts in the abdominal flank. After 14 days, subcutaneous hu-sActRIIB-Fc was administered weekly alone or in combination with 5-FU.

Assay [2] deals with TOV-21G, BAEC, MRC-5, CCD-Lu, U937 and THP-1 cultures. As to the kind of experiment: Real-time RT-PCR of VEGF, Ang-1 and βA in cell cultures treated with recombinant activin-A. The assay is classed as cell-based. The following applies: sActRIIB added with recombinant activin-A. From the text:
ID NO: 291), [NT] ID NO: 292), and TaqMan probe [NT] ID NO: 293).

Assay [3] can be described thus: sActRIIB and doxorubicin in TOV-21G tumor-bearing nude mice: body weight and muscle mass. The class given is in vivo, mouse. Here is the method: The objective of the present study was to examine the effect of pharmacological administration of sActRIIB, doxorubicin (dox), and sActRIIB plus doxorubicin, respectively, on body weight, tumor growth and muscle mass in nude mice implanted with TOV-21G ovarian xenograft tumors. Eight-week-old female Athymic nude mice were SC injected with 0.2 mL of 5×10^6 TOV-21G cells into the left site of the lower flank of the mice. After 10 days of tumor implantation, the mice were divided into 4 groups by body weight and tumor size and then treated with vehicle, sActRIIB, doxorubicin or the combination of sActRIIB and doxorubicin. In addition, a group of non-tumor bearing mice was used as normal control and received PBS.
Mice were weighed weekly. Body weight data were recorded longitudinally. Tumor size was measured longitudinally by using an electronic caliper. The following formula was used to calculate actual tumor volume (Tomayko M and Reynolds C, 1989): (Volume of a rectangular solid tumor: Tumor volume (mm^3)=length (mm)×width (mm)×height (mm) of tumor). At the end of the study, mice in all groups were subjected to terminal necropsy and lean carcass weight (excluding skin, adipose tissue, internal organs, and head) was determined by using standard anatomical dissection procedures. […] All results were expressed as the mean±SEM (standard error of the mean). […]

B1: sActRIIB: extracellular domain of human activin type-2B receptor fused to IgG2 Fc; full length SEQ ID NO: 21 (Table 9) (protein, listed as Homo sapiens)
chain: ETRWCIYYNANWELERTNQSGLERCEGEQDKRLHCYASWRNSSGTIELVKKGCWLDDFNCYDRQECVATEENPQVYFCCCEGNFCNERFTHLPEAGGPEVTYEPPPTAPTGGGGSVECPPCPAPPVAGPSVFLFPPKPKDTLMISRTPEVTCVVVDVSHEDPEVQFNWYVDGVEVHNAKTKPREEQFNSTFRVVSVLTVVHQDWLNGKEYKCKVSNKGLPAPIEKTISKTKGQPREPQVYTLPPSREEMTKNQVSLTCLVKGFYPSDIAVEWESNGQPENNYKTTPPMLDSDGSFFLYSKLTVDKSRWQQGNVFSCSVMHEALHNHYTQKSLSLSPGK
Take B1: the “body weight increase during the experiment” value in assay [1] worked out at 26%. In assay [2], the “induction of VEGF and Ang-1 mRNA by recombinant activin-A” value is “prevented this induction of VEGF and Ang-1”; the “induction of βA expression by recombinant activin-A” value is “blocked completely”. The body weight entry in assay [3] (TOV-21G tumor-bearing nude mice, sActRIIB 10 mg/kg SC 1x/week, DOX 2 mg/kg IP 1x/week) is listed as “effectively prevented the weight loss”. Moreover, the “lean carcass weight and calf muscle mass” value in assay [3] (TOV-21G-implanted nude mice, necropsy at end of 4-week experiment) was “prevented the loss in lean carcass weight and calf muscle mass”.
